Measured values as given in IntAct's records for PubMed 33986552.

Target: GMPPA, Q96IJ6-1
Sequence (Q96IJ6 whole entry): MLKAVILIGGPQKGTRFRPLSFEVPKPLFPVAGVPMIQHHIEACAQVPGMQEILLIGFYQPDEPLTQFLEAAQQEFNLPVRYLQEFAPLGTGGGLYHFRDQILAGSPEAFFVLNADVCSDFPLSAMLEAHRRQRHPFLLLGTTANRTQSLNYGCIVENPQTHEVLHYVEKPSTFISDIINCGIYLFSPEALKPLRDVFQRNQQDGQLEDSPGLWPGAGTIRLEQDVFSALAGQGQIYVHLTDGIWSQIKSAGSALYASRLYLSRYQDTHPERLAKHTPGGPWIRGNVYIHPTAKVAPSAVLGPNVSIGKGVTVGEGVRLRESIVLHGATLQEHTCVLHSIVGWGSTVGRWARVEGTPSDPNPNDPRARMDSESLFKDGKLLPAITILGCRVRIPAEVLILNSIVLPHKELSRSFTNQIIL

Chain of Mannose-1-phosphate guanylyltransferase catalytic subunit beta (Homo sapiens), Q9Y5P6-1 C266Y (Q9Y5P6 whole entry C266Y): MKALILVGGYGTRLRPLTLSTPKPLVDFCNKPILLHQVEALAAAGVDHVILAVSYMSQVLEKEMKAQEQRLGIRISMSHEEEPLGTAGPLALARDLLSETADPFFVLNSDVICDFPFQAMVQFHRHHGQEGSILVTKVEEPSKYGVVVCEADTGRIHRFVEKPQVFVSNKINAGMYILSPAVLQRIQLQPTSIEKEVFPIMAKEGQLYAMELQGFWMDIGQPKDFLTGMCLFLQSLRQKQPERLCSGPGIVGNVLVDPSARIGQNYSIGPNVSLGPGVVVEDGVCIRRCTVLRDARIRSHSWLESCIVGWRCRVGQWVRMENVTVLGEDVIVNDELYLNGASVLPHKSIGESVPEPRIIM
Chain of Mannose-1-phosphate guanylyltransferase catalytic subunit beta (Homo sapiens), Q9Y5P6-1 D334N (Q9Y5P6 whole entry D334N): as the sequence (Q9Y5P6 whole entry C266Y) above, with Y266C, D334N counted along it
Chain of Mannose-1-phosphate guanylyltransferase catalytic subunit beta (Homo sapiens), Q9Y5P6-1 R293W (Q9Y5P6 whole entry R293W): as the sequence (Q9Y5P6 whole entry C266Y) above, with Y266C, R293W counted along it
Chain of Mannose-1-phosphate guanylyltransferase catalytic subunit beta (Homo sapiens), Q9Y5P6-1 R357H (Q9Y5P6 whole entry R357H): as the sequence (Q9Y5P6 whole entry C266Y) above, with Y266C, R357H counted along it
Chain of Mannose-1-phosphate guanylyltransferase catalytic subunit beta (Homo sapiens), Q9Y5P6-1 L303F (Q9Y5P6 whole entry L303F): as the sequence (Q9Y5P6 whole entry C266Y) above, with Y266C, L303F counted along it

Substance | effect of a mutation on the interaction
Mannose-1-phosphate guanylyltransferase catalytic subunit beta (Homo sapiens), Q9Y5P6-1 L303F | with no effect
Mannose-1-phosphate guanylyltransferase catalytic subunit beta (Homo sapiens), Q9Y5P6-1 R293W | with no effect

Second part, the substance after the results:

effect of a mutation on the interaction | Substance
with no effect | Mannose-1-phosphate guanylyltransferase catalytic subunit beta (Homo sapiens), Q9Y5P6-1 C266Y
with no effect | Mannose-1-phosphate guanylyltransferase catalytic subunit beta (Homo sapiens), Q9Y5P6-1 D334N
decreasing interaction strength | Mannose-1-phosphate guanylyltransferase catalytic subunit beta (Homo sapiens), Q9Y5P6-1 R357H
